Laboratory results published in US7851436 (WASHINGTON UNIVERSITY IN ST LOUIS, dated 2010).

Tests used:
β1 integrin = target: T1, β1 integrin (human, UniProt P05556 21-798); assay: GST pull-down from surface-biotinylated Ch-1 lysate, Western blot (FIG. 3K)
T1 construct: whole, on cells; Probed by Western blot in the material pulled out by PIIBNP
Description: (§1) Cell Surface labeling and GST Pull-down Assay. Ch-1 cells were incubated with EZ-link Sulfo-NHS-Biotin reagent for 30 mins. according to the product instruction (Sigma). After 3 washes with 0.1 M glycine in PBS, the cells were lysed with a lysis buffer described above. […] The membrane was washed and incubated with antibodies and then incubated with a secondary antibody coupled to horseradish peroxidase. The antibody complex was visualized by enhanced chemiluminescence.

α5 integrin = target: T2, α5 integrin (human, UniProt P08648 42-1049); assay: GST pull-down from surface-biotinylated Ch-1 lysate, Western blot (data not shown)
T2 construct: whole, on cells

α4 integrin = target: T3, α4 integrin (human, UniProt P13612 34-1032); assay: as above
T3 construct: whole, on cells; The antibody lists in the methods name α2, α3 and α5 but not α4
T3 sequence (looked up): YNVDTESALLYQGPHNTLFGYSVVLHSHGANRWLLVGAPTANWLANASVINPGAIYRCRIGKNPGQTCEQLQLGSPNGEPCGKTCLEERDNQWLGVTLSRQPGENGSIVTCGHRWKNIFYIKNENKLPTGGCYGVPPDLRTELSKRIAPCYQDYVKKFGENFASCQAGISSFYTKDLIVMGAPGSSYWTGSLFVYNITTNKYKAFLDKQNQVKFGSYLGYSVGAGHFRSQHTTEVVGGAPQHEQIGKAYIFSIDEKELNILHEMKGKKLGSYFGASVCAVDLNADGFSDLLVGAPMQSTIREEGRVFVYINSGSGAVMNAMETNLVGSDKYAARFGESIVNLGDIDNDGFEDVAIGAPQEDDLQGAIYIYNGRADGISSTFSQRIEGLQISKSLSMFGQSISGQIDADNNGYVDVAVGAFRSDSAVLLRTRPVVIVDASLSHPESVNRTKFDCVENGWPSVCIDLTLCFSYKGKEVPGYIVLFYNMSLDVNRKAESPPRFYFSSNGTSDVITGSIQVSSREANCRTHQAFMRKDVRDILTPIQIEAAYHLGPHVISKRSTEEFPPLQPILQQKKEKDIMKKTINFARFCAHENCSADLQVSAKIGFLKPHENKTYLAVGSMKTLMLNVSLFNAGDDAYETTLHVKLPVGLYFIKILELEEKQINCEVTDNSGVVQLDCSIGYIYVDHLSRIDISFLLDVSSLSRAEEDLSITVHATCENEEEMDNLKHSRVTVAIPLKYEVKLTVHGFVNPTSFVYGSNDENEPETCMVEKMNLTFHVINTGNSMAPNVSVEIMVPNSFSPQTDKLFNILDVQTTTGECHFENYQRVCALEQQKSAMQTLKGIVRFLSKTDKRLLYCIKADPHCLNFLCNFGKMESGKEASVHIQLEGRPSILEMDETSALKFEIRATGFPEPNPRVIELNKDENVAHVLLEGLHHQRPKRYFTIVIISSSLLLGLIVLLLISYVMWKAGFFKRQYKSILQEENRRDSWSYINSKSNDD
Description: as §1

T2 sequence (P08648 42-1049): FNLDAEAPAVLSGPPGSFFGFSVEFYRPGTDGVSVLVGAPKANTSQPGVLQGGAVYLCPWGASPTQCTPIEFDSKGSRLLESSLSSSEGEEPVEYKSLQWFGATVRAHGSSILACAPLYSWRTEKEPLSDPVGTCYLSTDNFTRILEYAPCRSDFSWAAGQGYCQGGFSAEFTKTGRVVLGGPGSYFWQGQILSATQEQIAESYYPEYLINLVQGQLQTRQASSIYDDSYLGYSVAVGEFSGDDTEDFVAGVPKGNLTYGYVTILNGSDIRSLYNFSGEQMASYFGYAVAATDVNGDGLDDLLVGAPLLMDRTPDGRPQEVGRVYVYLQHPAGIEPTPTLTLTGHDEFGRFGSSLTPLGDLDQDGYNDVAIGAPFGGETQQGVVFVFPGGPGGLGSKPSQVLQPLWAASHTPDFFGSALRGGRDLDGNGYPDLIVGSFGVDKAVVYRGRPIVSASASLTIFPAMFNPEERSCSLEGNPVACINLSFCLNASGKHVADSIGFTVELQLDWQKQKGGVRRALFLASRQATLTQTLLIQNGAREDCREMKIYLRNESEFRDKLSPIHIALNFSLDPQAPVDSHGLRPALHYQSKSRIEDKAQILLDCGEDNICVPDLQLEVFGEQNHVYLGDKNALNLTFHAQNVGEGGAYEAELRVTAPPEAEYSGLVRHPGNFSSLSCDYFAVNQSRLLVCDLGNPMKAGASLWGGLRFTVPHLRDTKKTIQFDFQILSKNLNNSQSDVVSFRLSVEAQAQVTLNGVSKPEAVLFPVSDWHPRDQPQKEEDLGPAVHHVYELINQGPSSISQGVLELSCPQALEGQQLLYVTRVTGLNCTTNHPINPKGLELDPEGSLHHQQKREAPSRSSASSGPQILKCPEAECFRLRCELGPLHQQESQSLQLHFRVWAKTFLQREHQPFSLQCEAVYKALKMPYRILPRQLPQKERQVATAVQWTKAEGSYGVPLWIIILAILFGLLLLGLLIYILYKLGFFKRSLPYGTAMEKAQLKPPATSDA
T1 sequence (P05556 21-798): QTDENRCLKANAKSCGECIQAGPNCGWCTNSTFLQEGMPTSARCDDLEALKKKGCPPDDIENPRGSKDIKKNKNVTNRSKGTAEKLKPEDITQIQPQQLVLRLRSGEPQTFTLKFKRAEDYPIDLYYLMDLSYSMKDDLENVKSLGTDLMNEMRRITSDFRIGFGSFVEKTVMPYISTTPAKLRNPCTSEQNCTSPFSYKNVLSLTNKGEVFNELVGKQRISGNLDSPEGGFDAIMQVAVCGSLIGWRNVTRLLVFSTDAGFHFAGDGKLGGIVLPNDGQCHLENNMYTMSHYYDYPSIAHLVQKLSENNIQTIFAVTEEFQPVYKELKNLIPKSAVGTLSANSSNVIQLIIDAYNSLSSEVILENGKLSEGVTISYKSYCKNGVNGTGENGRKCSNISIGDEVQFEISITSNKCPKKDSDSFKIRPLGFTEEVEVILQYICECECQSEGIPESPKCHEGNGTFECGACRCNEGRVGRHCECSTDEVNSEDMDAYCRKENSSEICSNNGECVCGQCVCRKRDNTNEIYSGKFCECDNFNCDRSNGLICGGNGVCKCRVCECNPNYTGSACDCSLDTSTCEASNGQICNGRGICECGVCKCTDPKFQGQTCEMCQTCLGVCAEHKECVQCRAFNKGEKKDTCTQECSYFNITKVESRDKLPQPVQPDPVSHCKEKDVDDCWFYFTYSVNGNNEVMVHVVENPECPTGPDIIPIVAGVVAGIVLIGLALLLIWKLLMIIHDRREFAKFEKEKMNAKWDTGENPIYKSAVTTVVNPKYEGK

- binding result (β1 integrin): no binding
- binding result (α5 integrin): no binding
- binding result (α4 integrin): no binding
B1: GST-PIIBNP (GST fusion of human Type IIB collagen amino propeptide, exons 3-8) (ligand)
chain: not shown
notes: domain: PIIBNP (exons 3-8); Expressed in E. coli BL21 (DE3) as a GST fusion; also called Type IIB propeptide; PPIIBNP; not shown: glutathione S-transferase (GST) tag encoded by the pGEX-4T-2 vector, thrombin-cleavable
